# How the values were obtained:
# [1] = Solubility of Lumizyme® in the presence of 1-DNJ-HCl and excipients (Example 12); type: physicochemical
# Experimental: A vial of Lumizyme® containing 52.5 mg protein, 210 mg mannitol, 0.5 mg polysorbate 80, 9.9 mg Na2HPO4×7H2O, and 31.2 mg NaH2PO4×H2O was dissolved in a minimal volume of water (1 mL added) yielding 1.2 mL of protein solution. Five 240-μL aliquots (each containing 10.5 mg protein) were transferred to Amicon Ultra 0.5 mL 30 kDa cutoff centrifugal filter devices and centrifuged for 10 min at 14,000×g in an Eppendorf centrifuge to obtain about 50 μL of retentate.
# The original excipients present in the composition, i.e., mannitol and polysorbate 80 were exchanged for new excipients to test protein solubility (keeping the same buffer conditions). The following excipient solutions were prepared for the exchange using the original phosphate buffer:
# For exchanging excipients, 5.2 mg Na2HPO4 and 27.1 mg NaH2PO4 were dissolved in 10.3 mL water to prepare the washing/excipient exchange phosphate buffer of approximately 26 mM. A volume of 8 mL of the buffer for excipient exchange was supplemented with 160 mg/mL of the small molecule ligand (to prepare excipient 1, 3, 4 and 5 solutions), while 2 mL was supplemented with 32 mg/mL ligand for excipient 2 (100 mM Arginine). Each of the excipients were dissolved in 2 mL of this buffer at the concentrations listed above.
# An excipient solution was added to each separate filter device to achieve a total volume of 0.5 mL. Each filter device was centrifuged for 15 min at 14,000×g in a bench top Eppendorf centrifuge to retain approximately 25 μL. The units were re-filled with the same excipient solution to 0.5 mL and centrifuged again (this process was repeated 2 times). This procedure efficiently replaced mannitol and polysorbate 80 with excipients described above, diluting the original constituents by about 1:1000. All filtrates for each excipient were collected and examined for any protein leaks through the filter.
# Each centrifugal filter device was inverted in a clean tube, and the concentrated protein solution was collected from each filter device by centrifugation for 2 min at 1000×g. The volume of each sample was determined (66 μL, corresponding to a target protein concentration of 160 mg/mL), and it was confirmed that no visible precipitate was observable in each sample. Samples were transferred back to their respective filter devices and centrifuged for an additional 5 min Samples were then collected by inversion of the filters into clean tubes and centrifuging for 2 min at 1000×g to yield about 37 μL of retentate (corresponding to >280 mg/mL protein based on a total initial concentration of 10.5 mg protein).
# The samples were vortexed and incubated for 1 hr at room temperature to equilibrate liquid and solid phases followed by centrifugation for 10 min at 14,000×g. Again, no visible precipitate was observed. Two-three 10 μL aliquots were taken from the supernatant of each sample (depending on available volume of the liquid phase), and diluted 1:1000 in two steps. Protein concentration was measured by UV absorbance at 280 nm, and the maximum protein solubility was calculated according to a highly reproducible calibration curve. The calibration curve was prepared by dissolving 6.8 mg of Myozyme® (alglucosidase alpha) lyophilized powder (containing 1.16 mg protein) in 1.16 mL of water followed by a serial dilution in deionized water. Absorbance was measured at 280 nm in a 1 cm light-pass quartz semi-micro cuvette using 0.5 mL aliquots.
# GAA KO mice [2] = experiment: Tissue rhGAA activity after repeat SQ dosing between the shoulder blades (Example 13); type: in vivo, mouse; details: Lumizyme 20 mg/kg +/− 1-DNJ 30 mg/kg SQ, 4 doses (Mon and Thu), 3 days after last dose
# Experimental: 12-week old male GAA KO mice in groups of 7 were used in the present study. Each group of mice was administered one of the following treatments:
# (2) Lumizyme® alone (20 mg/kg) delivered subcutaneously (SQ); or
# (3) Co-formulated Lumizyme® (20 mg/kg) and 1-DNJ (30 mg/kg) SQ.
# Each of the treatments were administered to their respective treatment group for a period of 2 weeks. The treatments were administered on Monday and Thursday of each week. SQ injections were administered between the shoulder blades of each mouse receiving treatment. A total of 4 doses was administered to each study animal. Diphenhydramine was administered intraperitoneally (IP) before the 3rd and 4th doses.
# (§1) Tissue samples were collected to determine rhGAA uptake 3 days following the last dose of the study (i.e., 3 days post dose 4). Tissue samples included heart, diaphragm, tongue, brain, spleen, liver, biceps, triceps, quadriceps, soleus, gastrocnemius, ventral skin and dorsal skin from the SQ injection site. Tissue samples were also collected to determine glycogen concentration 14 days following the last dose of the study (i.e., 14 days post dose 4).
# GAA KO mice [3] = experiment: Tissue glycogen reduction after repeat SQ with varying 1-DNJ (Example 16); type: in vivo, mouse; details: Lumizyme 20 mg/kg SQ alone, 4 administrations, 14 days after last
# Experimental: 14-week old male GAA KO mice in groups of 7 were used in the present study. Each group of mice was administered one of the following treatments:
# Each of the treatments was administered to their respective treatment group for a period of 2 weeks. The treatments were administered on Monday and Thursday of each week. SQ injections were administered between the shoulder blades of each mouse receiving treatment. A total of 4 doses were administered to each study animal.
# as §1, with “heart, tongue,” for “heart,”, “diaphragm,” for “diaphragm, tongue, brain, spleen, liver, biceps,”, “quads,” for “quadriceps, soleus,”
# FIGS. 47-54 show tissue GAA activity 3 days following the final administration, and glycogen levels 14 days following the final administration. GAA activities in tissues were determined using a 4-MUG fluorogenic substrate assay. Glycogen levels were determined using a glycogen assay (see Example 9 for method). Lumizyme® alone administered subcutaneously led to uptake of enzyme in all investigated tissues following repeat administrations.
substance,measurement,setting,value
"Lumizyme®: alglucosidase alfa, recombinant human acid α-glucosidase from Genzyme Corporation",Protein solubility,"[1]; Arginine 100 mM, 1-DNJ-HCl 32 mg/mL",201 mg/mL
same,Protein solubility,"[1]; Arginine + Glutamic acid 50 mM + 50 mM, 1-DNJ-HCl 160 mg/mL",242 mg/mL
same,Protein solubility,"[1]; Gamma-cyclodextrin 10% (w/v), 1-DNJ-HCl 160 mg/mL",114 mg/mL
same,Protein solubility,"[1]; PEG400 5% (w/v), 1-DNJ-HCl 160 mg/mL",158 mg/mL
same,Protein solubility,"[1]; Proline 250 mM, 1-DNJ-HCl 160 mg/mL",195 mg/mL
same,rhGAA activity uptake,GAA KO mice [2]; Biceps,56.0 nmol/mg/h
same,rhGAA activity uptake,GAA KO mice [2]; Diaphragm,4.2 nmol/mg/h
same,rhGAA activity uptake,GAA KO mice [2]; Gastrocnemius,2.0 nmol/mg/h
same,rhGAA activity uptake,GAA KO mice [2]; Heart,1.9 nmol/mg/h
same,rhGAA activity uptake,GAA KO mice [2]; Quadriceps,2.1 nmol/mg/h
same,rhGAA activity uptake,GAA KO mice [2]; Skin,75 nmol/mg/h
same,rhGAA activity uptake,GAA KO mice [2]; Soleus,2.7 nmol/mg/h
same,rhGAA activity uptake,GAA KO mice [2]; Tongue,2.7 nmol/mg/h
same,rhGAA activity uptake,GAA KO mice [2]; Triceps,88.0 nmol/mg/h
same,Glycogen (% Reduction),GAA KO mice [3]; Biceps,45%
same,Glycogen (% Reduction),GAA KO mice [3]; Diaphragm,8%
same,Glycogen (% Reduction),GAA KO mice [3]; Gastrocnemius,10%
same,Glycogen (% Reduction),GAA KO mice [3]; Heart,15%
same,Glycogen (% Reduction),GAA KO mice [3]; Quadriceps,9%
same,Glycogen (% Reduction),GAA KO mice [3]; Skin,15%
same,Glycogen (% Reduction),GAA KO mice [3]; Tongue,10%
same,Glycogen (% Reduction),GAA KO mice [3]; Triceps,64%
